From patent US9555076B2, “Neuregulin based methods and compositions for treating cardiovascular diseases” (Zensun (Shanghai) Science & Technology, Co., Ltd., priority 2002, dated 2017)
Values joined by “and” are separate entries in the source; they are usually repeats but may differ in a detail not shown here. Identical values can stand only once.

Experiments:
[1] = tested on: heart failure in rat caused by ligation of coronary artery; assay: Capillary counting in myocardial fibrotic area (HE, image analysis); type: in vivo, SD rat
Description: After fixed with 10% formaldehyde, myocardium of the rat was longitudinally cut with equal distance into 3 slices, conventionally embedded with paraffin, section made, HE stained, image analysis for area of fibrotic region of the heart, counted the number of capillary in the fibrotic lesion (counting unit: piece/mm^2); Nagar-Oslen stained, studied the size of ischemic hypoxic region in the myocardium.

[2] = tested on: toxic myocarditis caused by Adriamycin in rat; assay: Hemodynamics index, Adriamycin rat model; type: in vivo, SD rat; settings: rat, Adriamycin model
Experimental: rhNRG-1 β was injected into the tail vein within 24 hours after the first injection of Adriamycin. During the experiment, animal survival was dynamically monitored, heart function indexes (maximal rate of pressure increase within left ventricle, […], maximal rate of pressure decrease within left ventricle, −dp/dt, systolic end pressure of left ventricle LVPmax, diastolic end pressure of left ventricle LVPmin) were monitored at the 5th week. Section was made from the heart tissue and pathological changes examined.
Hemodynamics index such as carotid artery pressure, intra-ventricular pressure. dp/dt was measured with six lead physiology recorder. Major procedure: separate the right carotid artery, ligate its distal end and block its proximal end with arterial clamps, 20 G arteriovenous indwelling needle was inserted into the carotid artery, took out the medal stylet, loosened the artery clamps, push the plastic trocar further into appropriate depth, indwelled for 10 minutes, observed the wave style recorded by the physiology recorder, after it was stable, then recorded the carotid artery pressure and push the trocar further into the left ventricle, kept in place for 15 minutes, after it was stable, then recorded the dp/dt, −dp/dt, LVPmax and LVPmin.

[3] = tested on: toxic myocarditis caused by Adriamycin in rat; assay: Myocardial pathologic scoring, Adriamycin rat model; type: in vivo, SD rat; settings: Adriamycin model
Experimental: Heart was extirpated after thoracotomy (auricle should be reserved), the heart weight was measured after dried with absorbent paper, ratio of heart weight/body weight calculated; outer diameter of the heart was measured at ½ site of the vertically standing heart; medium part of the left ventricle was crosswise cut open, maximal thickness of free wall of the left ventricle measured; the heart was fixed with 10% formaldehyde, paraffin embedded and HE stained, observation of the myocardial structure carried out under optic microscope, give out pathologic score.
Scoring could be performed between grade 1 and grade 2 or between grade 2 and grade 3, e.g. grade 1.5, grade 2.5 etc. 6.3.3.3 Determination of Hemodynamics Index

[4] = tested on: acute myocardial injury caused by viral (Coxsackie B3) infection in mice; assay: Myocardial pathologic score, mice infected with Coxsackie B3 virus; type: in vivo, BALB/C mice; parameters: key: 0-4 score: 0 = 0%, 1 = 25%, 2 = 50%, 3 = 75%, 4 = 100% lesion area
Experimental: The survived mice were killed through dislocating the cervical spine, aseptic thoracotomy was performed and the heart extirpated, heart weight measured and put the myocardium into formaldehyde for fixation, embedded in paraffin, consecutive section made and pathologic examination performed, observed inflammatory cells infiltration of the myocardium, degeneration and necrosis. Based on the Principle of New Drug Evaluation Guideline, pathologic scoring criteria was defined as follow: • Score 0: lesion area accounting for 0%; • Score 1: lesion area accounting for 25%; • Score 2: lesion area accounting for 50%; • Score 3: lesion area accounting for 75%; • Score 4: lesion area accounting for 100%; • Scoring could be performed between score 1 and score 2 or between score 2 and score 3, e.g. when lesion area was 80% was scored as score 3.2, 7.3.3.4 Observation On Survival Of Mice

[5] = tested on: congestive heart failure caused by inferior vena cava constriction in dog; assay: Hemodynamic index by catheterization, TIVCC dog; type: in vivo, crossbred dog; settings: for L(−dp/dt) / L(+dp/dt): left ventricle
Experimental: 7F trifid balloon floating catheter was inserted into the right jugular vein, right auricular pressure, right ventricular pressure, pulmonary pressure and pulmonary wedge pressure were recorded.
6F trifid balloon floating catheter was again inserted into left carotid artery, aorta pressure and left ventricle pressure were recorded with physiology recorder with the following major index: LVPmax, LVPmin, +dp/dt, and −dp/dt.

[6] = Acute toxicity experiment, intravenous injection; type: in vivo
[7] = tested on: toxic myocarditis caused by Adriamycin in rat; assay: Serum troponin T (cTnT) level, Adriamycin rat model; type: in vivo, SD rat
[8] = 10 μg/kg iv qd × 10 d, (I), listed as rhNRG-1β
[9] = 20 μg/kg iv qd × 10 d, (I), listed as rhNRG-1β
[10] = 40 μg/kg iv qd × 10 d, (I), listed as rhNRG-1β

B1: rhNRG-1 β: Recombinant human neuregulin fragment of 61 amino acid (SEQ ID NO:4), 3 disulfide bonds, expressed in E. coli (protein, listed as Homo sapiens)
chain: SHLVKCAEKEKTFCVNGGECFMVKDLSNPSRYLCKCPNEFTGDRCQNYVMASFYKAEELYQ
modifications: disulfide (positions not given here)
[1]; 5 μg/kg iv qd x 10
  Capillary counting (I): 9.35 ± 4.2 piece/mm^2
  Capillary counting (II): 15.0 ± 6.9 piece/mm^2
[1]; 10 μg/kg iv qd x 10
  Capillary counting (I): 8.99 ± 3.3 piece/mm^2
  Capillary counting (II): 19.6 ± 8.5 piece/mm^2
[1]; 20 μg/kg iv qd x 10
  Capillary counting (I): 10.12 ± 3.0 piece/mm^2
  Capillary counting (II): 24.6 ± 9.5 piece/mm^2
[2]; 10 μg/kg iv qd × 10 d, (I)
  +dp/dt: 4875±636 mmHg/s and 4875 mmHg/s
  LVPmax: 145±15.2 mmHg and 145 mmHg
  LVPmin: −24.5 mmHg
  −dp/dt: −3672±884 mmHg/s and −3672 mmHg/s
[2]; [8]
  +dp/dt: 4875±636 mmHg/s
  LVPmax: 145±15.2 mmHg
  −dp/dt: −3672±884 mmHg/s
[2]; 10 μg/kg iv qd × 10 d, (II)
  +dp/dt: 4956 mmHg/s
  LVPmax: 158.2 mmHg
  LVPmin: −22.4 mmHg
  −dp/dt: −3626 mmHg/s
[2]; 20 μg/kg iv qd × 10 d, (I)
  +dp/dt: 6107±418 mmHg/s and 6107 mmHg/s
  LVPmax: 156.1±17.7 mmHg and 156.1 mmHg
  LVPmin: −26.9 mmHg
  −dp/dt: −4323±457 mmHg/s and −4323 mmHg/s
[2]; [9]
  +dp/dt: 6107±418 mmHg/s
  LVPmax: 156.1±17.7 mmHg
  −dp/dt: −4323±457 mmHg/s
[2]; 20 μg/kg iv qd × 10 d, (II)
  +dp/dt: 5833 mmHg/s
  LVPmax: 157.7 mmHg
  LVPmin: −26.6 mmHg
  −dp/dt: −4345 mmHg/s
[2]; 40 μg/kg iv qd × 10 d, (I)
  +dp/dt: 5954±689 mmHg/s and 5954 mmHg/s
  LVPmax: 165.7±22.7 mmHg and 165.7 mmHg
  LVPmin: −27.4 mmHg
  −dp/dt: −4794±954 mmHg/s and −4794 mmHg/s
[2]; [10]
  +dp/dt: 5954±689 mmHg/s
  LVPmax: 165.7±22.7 mmHg
  −dp/dt: −4794±954 mmHg/s
[2]; 40 μg/kg iv qd × 10 d, (II)
  +dp/dt: 6041 mmHg/s
  LVPmax: 166.3 mmHg
  LVPmin: −22.2 mmHg
  −dp/dt: −4529 mmHg/s
[3]; 10 μg/kg iv qd × 10 d, (I)
  Pathologic scoring: 1.83 ± 0.41
[3]; 10 μg/kg iv qd × 10 d, (II)
  Pathologic scoring: 2.167 ± 0.516
[3]; 20 μg/kg iv qd × 10 d, (I)
  Pathologic scoring: 1.17 ± 0.93
[3]; 20 μg/kg iv qd × 10 d, (II)
  Pathologic scoring: 1.667 ± 0.931
[3]; 20 μg/kg testing drug group
  myocardial pathologic score of the section shown in FIG. 20: 1
[3]; 40 μg/kg iv qd × 10, (II)
  Pathologic scoring: 0.583 ± 0.204
[3]; 40 μg/kg iv qd × 10 d, (I)
  Pathologic scoring: 0.33 ± 0.41
[3]; 40 μg/kg testing drug group
  myocardial pathologic score of the section shown in FIG. 20: 1
[3]; 130 μg/kg testing drug group (so in the source)
  myocardial pathologic score of the section shown in FIG. 20: 1.5
[4]; 7.5 μg/kg iv qd × 5, (I)
  Pathologic score Mean ± SD: 1.52 ± 0.74
[4]; 7.5 μg/kg iv qd × 5, (II)
  Pathologic score Mean ± SD: 1.34 ± 1.16
[4]; 15 μg/kg iv qd × 5, (I)
  Pathologic score Mean ± SD: 0.73±0.58
[4]; 15 μg/kg iv qd × 5, (I), listed as rhNRG-1β
  Pathologic score Mean ± SD: 0.73 ± 0.58
[4]; 15 μg/kg iv qd × 5, (II)
  Pathologic score Mean ± SD: 0.57 ± 0.58
[4]; 30 μg/kg iv qd × 3, (I)
  Pathologic score Mean ± SD: 0.33±0.155
[4]; 30 μg/kg iv qd × 3, (I), listed as rhNRG-1β
  Pathologic score Mean ± SD: 0.33 ± 0.155
[4]; 30 μg/kg iv qd × 3, (II)
  Pathologic score Mean ± SD: 0.55 ± 0.476
[4]; 30 μg/kg iv qd × 5, (I)
  Pathologic score Mean ± SD: 0.56±0.47
[4]; 30 μg/kg iv qd × 5, (I), listed as rhNRG-1β
  Pathologic score Mean ± SD: 0.56 ± 0.47
[4]; 30 μg/kg iv qd × 5, (II)
  Pathologic score Mean ± SD: 0.23 ± 0.26
[4]; 30 μg/kg iv qd × 5, Example 5 (I)
  Pathologic score Mean ± SD: 0.11±0.14
[4]; 30 μg/kg iv qd × 5, Example 5 (I), listed as rhNRG-1β
  Pathologic score Mean ± SD: 0.11 ± 0.140
[4]; 30 μg/kg iv qd × 5, Example 5 (II)
  Pathologic score Mean ± SD: 0.17 ± 0.157
[4]; 30 μg/kg iv qd × 7, (I)
  Pathologic score Mean ± SD: 0.13±0.13
[4]; 30 μg/kg iv qd × 7, (I), listed as rhNRG-1β
  Pathologic score Mean ± SD: 0.13 ± 0.132
[4]; 30 μg/kg iv qd × 7, (II)
  Pathologic score Mean ± SD: 0.19 ± 0.168
[5]; 1 μg/kg iv daily 5 days
  LVPmax: 102.12 ± 12.42 mmHg
  LVPmin: 0.59 ± 3.05 mmHg
  L(−dp/dt): −2933 ± 613.44 mmHg/s
[5]; 3 μg/kg iv daily 5 days
  LVPmax: 114.68 ± 17.12 mmHg
  LVPmin: −1.12 ± 1.34 mmHg
  L(+dp/dt): 5000.45 ± 1535.88 mmHg/s
  L(−dp/dt): −3249.52 ± 973.32 mmHg/s
[5]; 10 μg/kg iv daily 5 days
  LVPmax: 122.87 ± 17.37 mmHg
  LVPmin: −0.69 ± 1.05 mmHg
  L(+dp/dt): 5104.88 ± 1332.05 mmHg/s
  L(−dp/dt): −3658.34 ± 1390.97 mmHg/s
[5]; 1, 3 and 10 μg/kg iv daily 5 days
  effect on the right ventricle: not apparent
[6]
  MTD of acute toxicity experiment: 35 mg/kg
[7]; 10 μg/kg iv qd × 10 d, (II)
  cTnI: 8.342 ± 13.537 ng/mL
[7]; 20 μg/kg iv qd × 10 d, (II)
  cTnI: 1.677 ± 0.589 ng/mL
[7]; 40 μg/kg iv qd × 10, (II)
  cTnI: 0.874 ± 0.108 ng/mL
